# ± gives the standard deviation of the averaged measurements.
# Columns and labels:
# [1] = tested on: MCF7; experiment: percentage of EdU-negative (G0-arrested) nuclei per well, 72 h; higher = more G0 arrest; settings: reference: sequence is the full UniProt precursor, the tested protein was the secreted form or ectodomain
# [2] = tested on: hTERT-HMEC; experiment: as above; settings: reference: sequence is the full UniProt precursor, the tested protein was the secreted form or ectodomain
# [3] = protein concentration 0.03125 µM
# [4] = protein concentration 0.3125 µM
# [5] = protein concentration 0.0225 µM
# [6] = protein concentration 0.01575 µM
# [7] = protein concentration 0.1575 µM
# [8] = protein concentration 0.0171429 µM
# [9] = protein concentration 0.171429 µM
# [10] = protein concentration 0.01525 µM
# [11] = protein concentration 0.1525 µM
# 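Also: secreted proteins added to cultured cells, EdU pulse at the end, nuclei found by Hoechst imaging, EdU status from nuclear versus surrounding ring intensity ratio, PBS as neutral control.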
sequence,measurement,setting,value
MLFSALLLEVIWILAADGGQHWTYEGPHGQDHWPASYPECGNNAQSPIDIQTDSVTFDPDLPALQPHGYDQPGTEPLDLHNNGHTVQLSLPSTLYLGGLPRKYVAAQLHLHWGQKGSPGGSEHQINSEATFAELHIVHYDSDSYDSLSEAAERPQGLAVLGILIEVGETKNIAYEHILSHLHEVRHKDQKTSVPPFNLRELLPKQLGQYFRYNGSLTTPPCYQSVLWTVFYRRSQISMEQLEKLQGTLFSTEEEPSKLLVQNYRALQPLNQRMVFASFIQAGSSYTTGEMLSLGVGILVGCLCLLLAVYFIARKIRKKRLENRKSVVFTSAQATTEA [Q9ULX7],percentage of EdU-negative,[1]; [3],24.3 ± 0.34%
same,percentage of EdU-negative,[1]; [4],24.31 ± 0.24%
same,percentage of EdU-negative,[2]; [3],4.94 ± 0.17%
same,percentage of EdU-negative,[2]; [4],4.94 ± 0.42%
MAESAGASSFFPLVVLLLAGSGGSGPRGVQALLCACTSCLQANYTCETDGACMVSIFNLDGMEHHVRTCIPKVELVPAGKPFYCLSSEDLRNTHCCYTDYCNRIDLRVPSGHLKEPEHPSMWGPVELVGIIAGPVFLLFLIIIIVFLVINYHQRVYHNRQRLDMEDPSCEMCLSKDKTLQDLVYDLSTSGSGSGLPLFVQRTVARTIVLQEIIGKGRFGEVWRGRWRGGDVAVKIFSSREERSWFREAEIYQTVMLRHENILGFIAADNKDNGTWTQLWLVSDYHEHGSLFDYLNRYTVTIEGMIKLALSAASGLAHLHMEIVGTQGKPGIAHRDLKSKNILVKKNGMCAIADLGLAVRHDAVTDTIDIAPNQRVGTKRYMAPEVLDETINMKHFDSFKCADIYALGLVYWEIARRCNSGGVHEEYQLPYYDLVPSDPSIEEMRKVVCDQKLRPNIPNWWQSYEALRVMGKMMRECWYANGAARLTALRIKKTLSQLSVQEDVKI,percentage of EdU-negative,[1]; [5],25.1 ± 0.54%
same,percentage of EdU-negative,[1]; protein concentration 0.225 µM,25.3 ± 3.2%
same,percentage of EdU-negative,[2]; [5],5.48 ± 0.32%
same,percentage of EdU-negative,[2]; protein concentration 0.225 µM,6.41 ± 1.6%
MLALLCSCLLLAAGASDAWTGEDSAEPNSDSAEWIRDMYAKVTEIWQEVMQRRDDDGALHAACQVQPSATLDAAQPRVTGVVLFRQLAPRAKLDAFFALEGFPTEPNSSSRAIHVHQFGDLSQGCESTGPHYNPLAVPHPQHPGDFGNFAVRDGSLWRYRAGLAASLAGPHSIVGRAVVVHAGEDDLGRGGNQASVENGNAGRRLACCVVGVCGPGLWERQAREHSERKKRRRESECKAA,percentage of EdU-negative,[1]; [5],23.8 ± 1%
same,percentage of EdU-negative,[1]; protein concentration 0.225 µM,27 ± 0.74%
same,percentage of EdU-negative,[2]; [5],7 ± 3.4%
same,percentage of EdU-negative,[2]; protein concentration 0.225 µM,4.98 ± 0.59%
MRTVVLTMKASVIEMFLVLLVTGVHSNKETAKKIKRPKFTVPQINCDVKAGKIIDPEFIVKCPAGCQDPKYHVYGTDVYASYSSVCGAAVHSGVLDNSGGKILVRKVAGQSGYKGSYSNGVQSLSLPRWRESFIVLESKPKKGVTYPSALTYSSSKSPAAQAGETTKAYQRPPIPGTTAQPVTLMQLLAVTVAVATPTTLPRPSPSAASTTSIPRPQSVGHRSQEMDLWSTATYTSSQNRPRADPGIQRQDPSGAAFQKPVGADVSLGLVPKEELSTQSLEPVSLGDPNCKIDLSFLIDGSTSIGKRRFRIQKQLLADVAQALDIGPAGPLMGVVQYGDNPATHFNLKTHTNSRDLKTAIEKITQRGGLSNVGRAISFVTKNFFSKANGNRSGAPNVVVVMVDGWPTDKVEEASRLARESGINIFFITIEGAAENEKQYVVEPNFANKAVCRTNGFYSLHVQSWFGLHKTLQPLVKRVCDTDRLACSKTCLNSADIGFVIDGSSSVGTGNFRTVLQFVTNLTKEFEISDTDTRIGAVQYTYEQRLEFGFDKYSSKPDILNAIKRVGYWSGGTSTGAAINFALEQLFKKSKPNKRKLMILITDGRSYDDVRIPAMAAHLKGVITYAIGVAWAAQEELEVIATHPARDHSFFVDEFDNLHQYVPRIIQNICTEFNSQPRN [Q6UXI7],percentage of EdU-negative,[1]; [6],27 ± 0.45%
same,percentage of EdU-negative,[1]; [7],23.4 ± 0.87%
same,percentage of EdU-negative,[2]; [6],5.15 ± 0.69%
same,percentage of EdU-negative,[2]; [7],6.71 ± 1.1%
MLLFLLSALVLLTQPLGYLEAEMKTYSHRTMPSACTLVMCSSVESGLPGRDGRDGREGPRGEKGDPGLPGAAGQAGMPGQAGPVGPKGDNGSVGEPGPKGDTGPSGPPGPPGVPGPAGREGPLGKQGNIGPQGKPGPKGEAGPKGEVGAPGMQGSAGARGLAGPKGERGVPGERGVPGNTGAAGSAGAMGPQGSPGARGPPGLKGDKGIPGDKGAKGESGLPDVASLRQQVEALQGQVQHLQAAFSQYKKVELFPNGQSVGEKIFKTAGFVKPFTEAQLLCTQAGGQLASPRSAAENAALQQLVVAKNEAAFLSMTDSKTEGKFTYPTGESLVYSNWAPGEPNDDGGSEDCVEIFTNGKWNDRACGEKRLVVCEF,percentage of EdU-negative,[1]; [8],23.4 ± 1.8%
same,percentage of EdU-negative,[1]; [9],25.14 ± 0.067%
same,percentage of EdU-negative,[2]; [8],4.51 ± 0.51%
same,percentage of EdU-negative,[2]; [9],5.78 ± 0.29%
MSGPGTAAVALLPAVLLALLAPWAGRGGAAAPTAPNGTLEAELERRWESLVALSLARLPVAAQPKEAAVQSGAGDYLLGIKRLRRLYCNVGIGFHLQALPDGRIGGAHADTRDSLLELSPVERGVVSIFGVASRFFVAMSSKGKLYGSPFFTDECTFKEILLPNNYNAYESYKYPGMFIALSKNGKTKKGNRVSPTMKVTHFLPRL,percentage of EdU-negative,[1]; [10],27.2 ± 2.4%
same,percentage of EdU-negative,[1]; [11],28.58 ± 0.13%
same,percentage of EdU-negative,[2]; [10],5.05 ± 0.36%
same,percentage of EdU-negative,[2]; [11],5.7993 ± 0.0024%
